Test results: patent publication US20090048324

Tests used:
[1] = molecular target: T1, wild type human porphobilinogen synthase (PBGS), parent construct N59/C162A
T1 chain: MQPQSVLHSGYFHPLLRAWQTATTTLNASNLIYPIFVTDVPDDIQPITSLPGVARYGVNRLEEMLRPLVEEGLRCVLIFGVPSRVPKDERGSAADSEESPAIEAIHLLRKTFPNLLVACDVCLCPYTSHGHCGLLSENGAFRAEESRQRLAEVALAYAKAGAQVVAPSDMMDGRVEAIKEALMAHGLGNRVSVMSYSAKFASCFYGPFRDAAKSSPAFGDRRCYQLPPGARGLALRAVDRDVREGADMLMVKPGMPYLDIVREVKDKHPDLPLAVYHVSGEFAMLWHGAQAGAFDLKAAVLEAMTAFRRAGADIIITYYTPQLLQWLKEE

Protein | K(0.5) of the protein concentration dependent specific activity (P30124) | K(0.5) of the protein concentration dependent specific activity in the presence of 5 µM morphlock-1 (P30124) | protein concentration giving half maximal specific activity (P30124) | protein concentration giving half maximal specific activity after 30 minutes with 30 µM rosmarinic acid (P30124) | specific activity as a function of pea PBGS concentration, DMSO control (filled circles) (P30124) | specific activity as a function of pea PBGS concentration, with morphlock-1 (open circles) (P30124) | specific activity as a function of pea PBGS subunit concentration (P30124) | specific activity over time after addition of ALA (filled triangles, Pool I) [1] | specific activity over time after addition of ALA (filled triangles, Pool II) [1]
pea (Pisum sativum) porphobilinogen synthase (protein) SLPIQRRPRRNRRSPALRSAFQETTLSPANFVYPLFIHEGEEDTPIGAMPGCYRLGWRHGLLEEVAKARDVGVNSVVLFPKIPDALKTPTGDEAYNEDGLVPRSIRLLKDKYPDLIIYTDVALDPYSSDGHDGIVREDGVIMNDETVHQLCKQAVAQARAGADVVSPSDMMDGRVGAMRVALDAEGFQHVSIMSYTAKYASSFYGPFREALDSNPRFGDKKTYQMNPANYREALTEMREDESEGADILLVKPGLPYLDIIRLLRDNSPLPIAAYQVSGEYSMIKAGGALKMIDEEKVMMESLLCLRRAGADIILTYFALQAARTLCGEKR | K(0.5) of 0.064 µM PBGS | more than doubles the K(0.5) to 0.134 µM pea PBGS | half maximal activity at 3.5 µg/ml PBGS | half maximal activity at 13.5 µg/ml PBGS | rises from near 10 at about 0.008 µM to about 250 at about 0.8 µM; fitted line levels at about 275 µmol h-1 mg-1 toward 10 µM (log axis); the half-maximal K(0.5) is printed in the text | curve shifted to the right of the DMSO curve: near 0 at about 0.008 µM, about 240 at about 0.8 µM; fitted line reaches about 290 µmol h-1 mg-1 at 10 µM (log axis); the half-maximal K(0.5) is printed in the text | rises from about 5 at 0.001 µM to a plateau of about 220 at 0.7-1 µM on a log axis |  | 
human PBGS variant F12L (protein) MQPQSVLHSGYLHPLLRAWQTATTTLNASNLIYPIFVTDVPDDIQPITSLPGVARYGVNRLEEMLRPLVEEGLRCVLIFGVPSRVPKDERGSAADSEESPAIEAIHLLRKTFPNLLVACDVCLCPYTSHGHCGLLSENGAFRAEESRQRLAEVALAYAKAGAQVVAPSDMMDGRVEAIKEALMAHGLGNRVSVMSYSAKFASCFYGPFRDAAKSSPAFGDRRCYQLPPGARGLALRAVDRDVREGADMLMVKPGMPYLDIVREVKDKHPDLPLAVYHVSGEFAMLWHGAQAGAFDLKAAVLEAMTAFRRAGADIIITYYTPQLLQWLKEE |  |  |  |  |  |  |  | rises from about 1 at 0 min (fit) and about 2.5 at 15 min to a plateau of about 7.5 µmole h-1 mg-1 by 200-270 min | rises from about 18.3 at about 2 min to a plateau of about 22.2-22.4 µmole h-1 mg-1 from 30-45 min up to 150 min
